US20240382610A1 (TALLAC THERAPEUTICS, published 2024)

T1: Human nectin-4 ECD-6His (TNT-175) (human, UniProt Q96NY8 32-349)
T1 construct: the entry holds the extracellular domain with the C-terminal 6His tag
T1 sequence: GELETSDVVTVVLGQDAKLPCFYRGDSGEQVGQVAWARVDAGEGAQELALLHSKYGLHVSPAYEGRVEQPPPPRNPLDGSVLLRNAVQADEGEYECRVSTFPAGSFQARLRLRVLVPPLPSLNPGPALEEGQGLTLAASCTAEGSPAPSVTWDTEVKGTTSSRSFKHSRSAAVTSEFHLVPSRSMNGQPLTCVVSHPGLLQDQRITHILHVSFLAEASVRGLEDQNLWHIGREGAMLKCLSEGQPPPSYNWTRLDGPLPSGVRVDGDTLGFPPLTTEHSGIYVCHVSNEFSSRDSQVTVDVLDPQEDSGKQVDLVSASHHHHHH

T2: human nectin-4 on cells (human, UniProt Q96NY8 32-510)
T2 construct: whole, on cells; also called PVRL4
T2 sequence (looked up): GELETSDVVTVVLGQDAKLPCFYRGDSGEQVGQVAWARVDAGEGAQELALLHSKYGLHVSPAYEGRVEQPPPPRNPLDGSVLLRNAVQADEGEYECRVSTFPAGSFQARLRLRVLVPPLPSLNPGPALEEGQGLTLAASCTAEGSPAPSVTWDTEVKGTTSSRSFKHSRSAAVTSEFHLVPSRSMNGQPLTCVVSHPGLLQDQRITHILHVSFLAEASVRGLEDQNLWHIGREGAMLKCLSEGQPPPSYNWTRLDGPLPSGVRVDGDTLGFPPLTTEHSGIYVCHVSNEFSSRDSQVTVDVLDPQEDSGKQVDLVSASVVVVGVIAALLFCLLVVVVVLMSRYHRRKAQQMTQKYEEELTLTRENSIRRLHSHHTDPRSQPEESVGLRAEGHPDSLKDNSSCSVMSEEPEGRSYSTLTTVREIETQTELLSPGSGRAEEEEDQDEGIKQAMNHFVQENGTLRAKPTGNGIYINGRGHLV

B1: TNT-193 (antibody, mouse IgG2a, kappa)
heavy: QVQLQESGPGLVKPSGTLSLTCTVSGGSISSGGYYWAWIRQPPGKGLEWIGSIYYTGSTYYNPSLKSRVTIYVDTSKNQFSLKLSSVTAADTAVYYCARDPFPEPPDAFDIWGQGTMVTVSSAKTTAPSVYPLAPVCGDTTGSSVTLGCLVKGYFPEPVTLTWNSGSLSSGVHTFPAVLQSDLYTLSSSVTVTSSTWPSQSITCNVAHPASSTKVDKKIEPRGPTIKPCPPCKCPAPNLLGGPSVFIFPPKIKDVLMISLSPIVTCVVVDVSEDDPDVQISWFVNNVEVHTAQTQTHREDYNSTLRVVSALPIQHQDWMSGKEFKCKVNNKDLPAPIERTISKPKGSVRAPQVYVLPPPEEEMTKKQVTLTCMVTDFMPEDIYVEWTNNGKTELNYKNTEPVLDSDGSYFMYSKLRVEKKNWVERNSYSCSVVHEGLHNHHTTKSFSRTPGRPQGFGPP
light: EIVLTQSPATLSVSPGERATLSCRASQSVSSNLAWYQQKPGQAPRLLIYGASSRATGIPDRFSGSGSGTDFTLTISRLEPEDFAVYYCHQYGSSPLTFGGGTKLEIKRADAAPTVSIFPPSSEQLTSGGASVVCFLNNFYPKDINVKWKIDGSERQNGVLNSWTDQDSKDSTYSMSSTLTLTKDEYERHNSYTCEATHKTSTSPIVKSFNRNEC
B2: TNT-191 (antibody, mouse IgG2a, kappa)
heavy: EVQLLESGGGVVQPGRSLRLSCAASGFTFSSYGMHWVRQAPGKGLEWVAVISYDGSNKYYADSVKGRFTISRDNSKNTLYLQMNSLRAEDTAVYYCAKSSYYDYVWGSYRYTDAFDIWGQGTMVTVSSAKTTAPSVYPLAPVCGDTTGSSVTLGCLVKGYFPEPVTLTWNSGSLSSGVHTFPAVLQSDLYTLSSSVTVTSSTWPSQSITCNVAHPASSTKVDKKIEPRGPTIKPCPPCKCPAPNLLGGPSVFIFPPKIKDVLMISLSPIVTCVVVDVSEDDPDVQISWFVNNVEVHTAQTQTHREDYNSTLRVVSALPIQHQDWMSGKEFKCKVNNKDLPAPIERTISKPKGSVRAPQVYVLPPPEEEMTKKQVTLTCMVTDFMPEDIYVEWTNNGKTELNYKNTEPVLDSDGSYFMYSKLRVEKKNWVERNSYSCSVVHEGLHNHHTTKSFSRTPGRPQGFGPP
light: EIVLTQSPATLSLSPGERATLSCRASQSVSSSYLAWYQQKPGQAPRLLIYGASSRATGIPDRFSGSGSGTDFTLTISRLEPEDFAVYYCQQYNNWWTFGQGTKVDIKRADAAPTVSIFPPSSEQLTSGGASVVCFLNNFYPKDINVKWKIDGSERQNGVLNSWTDQDSKDSTYSMSSTLTLTKDEYERHNSYTCEATHKTSTSPIVKSFNRNEC
B3: TNT-192 (antibody, mouse IgG2a, kappa)
heavy: EVQLLESGGGVVQPGRSLRLSCAASGFTFSSYGMHWVRQAPGKGLEWVAVISYDGSNKYYADSVKGRFTISRDNSKNTLYLQMNSLRAEDTAVYYCAKDYGYNWNFFDYWGQGTLVTVSSAKTTAPSVYPLAPVCGDTTGSSVTLGCLVKGYFPEPVTLTWNSGSLSSGVHTFPAVLQSDLYTLSSSVTVTSSTWPSQSITCNVAHPASSTKVDKKIEPRGPTIKPCPPCKCPAPNLLGGPSVFIFPPKIKDVLMISLSPIVTCVVVDVSEDDPDVQISWFVNNVEVHTAQTQTHREDYNSTLRVVSALPIQHQDWMSGKEFKCKVNNKDLPAPIERTISKPKGSVRAPQVYVLPPPEEEMTKKQVTLTCMVTDFMPEDIYVEWTNNGKTELNYKNTEPVLDSDGSYFMYSKLRVEKKNWVERNSYSCSVVHEGLHNHHTTKSFSRTPGRPQGFGPP
light: DIVMTQSPSSLSASVGDRVTITCRASQGISNYLAWYQQKPGKVPKLLIYAASTLQSGVPSRFSGSGSGTDFTLTISSLQPEDVATYYCQKYNSAPYTFGQGTKVEIKRADAAPTVSIFPPSSEQLTSGGASVVCFLNNFYPKDINVKWKIDGSERQNGVLNSWTDQDSKDSTYSMSSTLTLTKDEYERHNSYTCEATHKTSTSPIVKSFNRNEC

Each binder was assayed against T1, Human nectin-4 ECD-6His (TNT-175) (assay: competition ELISA; nectin-4 ECD premixed with TNT209, captured by the coat antibody; % of signal without premix antibody).
Method: (§1) Competition experiments of nectin-4 antibodies. ELISA plates were coated overnight at 4° C. with goat anti-mouse IgG at […] in PBS. […] As positive control, nectin-4 was diluted at same concentrations without a premix antibody. Two wells per plate were allocated for diluent only as negative/background control. Plates were washed as previously, 50 μL/well of premix was added to each plate and incubated for one hour. Plates were washed then incubated at room temperature for one hour with Rabbit anti 6× HIS HRP diluted 1:4,000 in diluent. Plates were washed once more and incubated at room temperature for 20 minutes with 50 μL/well of ABTS substrate. […] Binding was measured as an Optical Density (O.D.) value normalized to background and calculated as a percentage of positive control at the lowest nectin-4 dilution for greatest resolution.

Binder	% of Positive [%]
B1	5.1
B2	30.4
B3	20.5

These binders were tested against T1, Human nectin-4 ECD-6His (TNT-175) (assay: competition ELISA; nectin-4 ECD premixed with TNT203, captured by the coat antibody; % of signal without premix antibody).
Method: as §1

Binder	% of Positive [%]
B1	17
B2	32.7
B3	23.3

What follows are binders tested against T1, Human nectin-4 ECD-6His (TNT-175) (assay: competition ELISA; nectin-4 ECD premixed with TNT204, captured by the coat antibody; % of signal without premix antibody).
Method: as §1

Binder	% of Positive [%]
B1	1.9
B2	4.5
B3	2.9

The binders below were run against T1, Human nectin-4 ECD-6His (TNT-175) (assay: SPR ProteOn, mAb on protein A).
Method: Initial testing of binding of nectin-4 antibodies to nectin-4. […] Biotinylated protein A (15 μg/mL) was immobilized to the surface of an NLC chip. 30 nM of purified mAb supernatant was diluted in PBS-T and captured over the protein A surface. Serial dilutions of human nectin-4 were injected over the mAb-coated chips, and binding kinetics were determined. Chips were regenerated using 4:1 v/v of IgG elution butter/4M NaCl.

Binder	Kd [nM]	koff [s⁻¹]	kon [M⁻¹ s⁻¹]
B1	3.73	0.00837	2.24e+06
B2	4.3	0.000983	229000
B3	9.14	0.00294	322000

What follows are binders tested against T1, Human nectin-4 ECD-6His (TNT-175) (assay: competition ELISA; nectin-4 ECD premixed with TNT206, captured by the coat antibody; % of signal without premix antibody).
Method: as §1

Binder	% of Positive [%]
B1	3.1
B2	11.4
B3	6

These binders were tested against T1, Human nectin-4 ECD-6His (TNT-175) (assay: competition ELISA; nectin-4 ECD premixed with TNT205, captured by the coat antibody; % of signal without premix antibody).
Method: as §1

Binder	% of Positive [%]
B1	8.4
B2	54.8
B3	36.9

What follows are binders tested against T1, Human nectin-4 ECD-6His (TNT-175) (assay: competition ELISA; nectin-4 ECD premixed with TNT212, captured by the coat antibody; % of signal without premix antibody).
Method: as §1

Binder	% of Positive [%]
B1	3.7
B2	3
B3	2.2

The binders below were run against T1, Human nectin-4 ECD-6His (TNT-175) (assay: competition ELISA; nectin-4 ECD premixed with TNT207, captured by the coat antibody; % of signal without premix antibody).
Method: as §1

Binder	% of Positive [%]
B1	1.6
B2	2.5
B3	1.5

What follows are binders tested against T1, Human nectin-4 ECD-6His (TNT-175) (assay: competition ELISA; nectin-4 ECD premixed with TNT208, captured by the coat antibody; % of signal without premix antibody).
Method: as §1

Binder	% of Positive [%]
B1	2.4
B2	5.3
B3	2.3

What follows are binders tested against T1, Human nectin-4 ECD-6His (TNT-175) (assay: competition ELISA; nectin-4 ECD premixed with TNT211, captured by the coat antibody; % of signal without premix antibody).
Method: as §1

Binder	% of Positive [%]
B1	6
B2	24.6
B3	17.5

These binders were tested against T1, Human nectin-4 ECD-6His (TNT-175) (assay: competition ELISA; nectin-4 ECD premixed with TNT202, captured by the coat antibody; % of signal without premix antibody).
Method: as §1

Binder	% of Positive [%]
B1	3
B2	4.8
B3	3.1

These binders were tested against T1, Human nectin-4 ECD-6His (TNT-175) (assay: competition ELISA; nectin-4 ECD premixed with TNT210, captured by the coat antibody; % of signal without premix antibody).
Method: as §1

Binder	% of Positive [%]
B1	2.1
B2	2.4
B3	1.1

Each binder was assayed against T1, Human nectin-4 ECD-6His (TNT-175) (assay: competition ELISA; nectin-4 ECD premixed with TNT201, captured by the coat antibody; % of signal without premix antibody).
Method: as §1

Binder	% of Positive [%]
B1	2.2
B2	1.5
B3	1.1

The binders below were run against T2, human nectin-4 on cells (assay: flow cytometry MFI, MNK74 (nectin-4 positive) over AGS (negative)).
Method: Cell binding of nectin-4 antibodies. Cell binding of the nectin-4 antibodies was also assessed. MNK74 (nectin-4 positive) and AGS (nectin-4 negative) cells were obtained from ATCC and cultured according to their protocols. Cells were detached with TrypLE (Gibco) and washed by centrifugation for five minutes at 400×g with FACS buffer (PBS+2% FBS). Cells were resuspended in FACS buffer, plated in 96-well format (0.25 e6/well) then pelleted by centrifugation for five minutes at 400×g. Cells were stained at 4° C. in Fixable Viability Dye eFluor 506 (eBioscience) diluted 1:4,000 in PBS. […] Cells were centrifuged, washed once in FACS buffer and stained at 4° C. with Goat F(ab′)₂ anti-Mouse IgG APC (Southern Biotech) diluted 1:400 in FACS buffer for 30 minutes or appropriate anti-human IgG. Cells were centrifuged, washed twice and fixed in 0.5% paraformaldehyde. Cells were analyzed on Attune NxT Flow Cytometer (Thermo Fisher), with subsequent data analysis by Flowjo 10.7 (BD). Dead cells were excluded by gating on the eFluor 506-negative population. […] Binding was assessed by median fluorescent intensity.

Binder	Fold-change of binding to MNK74 compared to control AGS [fold]
B1	5.2
B2	5
B3	4.5
